# Measurements published in the supplement of paper PMC9112550, “Optimization of the antimicrobial peptide Bac7 by deep mutational scanning” (BMC Biology, 2022).
# System: Escherichia coli TOP10
# Assay: shrunken log2 fold change of peptide-encoding DNA abundance (4.5 h post-induction vs induction); higher = less antimicrobial activity (less host growth inhibition)
# Settings: time post-induction: 4.5 h; library: site-saturation at positions 5, 18, 19, 20
# 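Also: peptides expressed intracellularly from a pBAD plasmid library in pooled LB shake-flask culture, induced with 0.3% L-arabinose, DNA abundance read by NGS, three biological replicates, DESeq2 with apeglm shrinkage.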
row,Sequence,shrunken log2 fold change
1,RRIRRRPPRLPRPRPRPSSRPRP,-0.00108
2,RRIRRRPPRLPRPRPRPSTNPRP,-0.0966
3,RRIRRRPPRLPRPRPRPSTTPRP,0.00373
4,RRIRRRPPRLPRPRPRPSWIPRP,-0.284
5,RRIRRRPPRLPRPRPRPSYEPRP,-0.33
6,RRIRRRPPRLPRPRPRPSYVPRP,-0.0434
7,RRIRRRPPRLPRPRPRPTCAPRP,0.502
8,RRIRRRPPRLPRPRPRPTCFPRP,0.469
9,RRIRRRPPRLPRPRPRPTCHPRP,0.0647
10,RRIRRRPPRLPRPRPRPTCLPRP,0.099
11,RRIRRRPPRLPRPRPRPTCTPRP,0.165
12,RRIRRRPPRLPRPRPRPTFKPRP,0.214
13,RRIRRRPPRLPRPRPRPTHTPRP,0.66
14,RRIRRRPPRLPRPRPRPTKQPRP,-0.0752
15,RRIRRRPPRLPRPRPRPTLCPRP,0.581
16,RRIRRRPPRLPRPRPRPTLWPRP,0.563
17,RRIRRRPPRLPRPRPRPTMRPRP,0.667
18,RRIRRRPPRLPRPRPRPTMVPRP,0.283
19,RRIRRRPPRLPRPRPRPTNHPRP,-0.0627
20,RRIRRRPPRLPRPRPRPTPQPRP,1.52
21,RRIRRRPPRLPRPRPRPTQNPRP,1.03
22,RRIRRRPPRLPRPRPRPTRWPRP,0.799
23,RRIRRRPPRLPRPRPRPTSFPRP,0.264
24,RRIRRRPPRLPRPRPRPTTLPRP,0.0363
25,RRIRRRPPRLPRPRPRPTTTPRP,0.34

row,Sequence,shrunken log2 fold change
1,RRIRRRPPRLPRPRPRPTWAPRP,0.7
2,RRIRRRPPRLPRPRPRPTWSPRP,0.519
3,RRIRRRPPRLPRPRPRPTYMPRP,-0.242
4,RRIRRRPPRLPRPRPRPVCNPRP,0.181
5,RRIRRRPPRLPRPRPRPVDDPRP,-0.0484
6,RRIRRRPPRLPRPRPRPVEEPRP,0.105
7,RRIRRRPPRLPRPRPRPVENPRP,0.0788
8,RRIRRRPPRLPRPRPRPVEWPRP,-0.182
9,RRIRRRPPRLPRPRPRPVFFPRP,0.255
10,RRIRRRPPRLPRPRPRPVGAPRP,0.592
11,RRIRRRPPRLPRPRPRPVGEPRP,0.333
12,RRIRRRPPRLPRPRPRPVGHPRP,0.0496
13,RRIRRRPPRLPRPRPRPVHPPRP,0.348
14,RRIRRRPPRLPRPRPRPVMMPRP,-0.0277
15,RRIRRRPPRLPRPRPRPVNHPRP,0.177
16,RRIRRRPPRLPRPRPRPVPLPRP,0.385
17,RRIRRRPPRLPRPRPRPVQTPRP,0.178
18,RRIRRRPPRLPRPRPRPVRAPRP,0.935
19,RRIRRRPPRLPRPRPRPVRIPRP,-0.00526
20,RRIRRRPPRLPRPRPRPVRPPRP,0.512
21,RRIRRRPPRLPRPRPRPVRQPRP,0.874
22,RRIRRRPPRLPRPRPRPVSHPRP,0.218
23,RRIRRRPPRLPRPRPRPVSMPRP,0.22
24,RRIRRRPPRLPRPRPRPVYHPRP,-0.0449
25,RRIRRRPPRLPRPRPRPWCGPRP,0.282

row,Sequence,shrunken log2 fold change
1,RRIRRRPPRLPRPRPRPWDPPRP,-0.119
2,RRIRRRPPRLPRPRPRPWEIPRP,-0.0233
3,RRIRRRPPRLPRPRPRPWEPPRP,0.0979
4,RRIRRRPPRLPRPRPRPWFYPRP,-0.00712
5,RRIRRRPPRLPRPRPRPWGCPRP,0.0658
6,RRIRRRPPRLPRPRPRPWGPPRP,0.0858
7,RRIRRRPPRLPRPRPRPWGRPRP,0.101
8,RRIRRRPPRLPRPRPRPWKIPRP,-0.11
9,RRIRRRPPRLPRPRPRPWKTPRP,0.00424
10,RRIRRRPPRLPRPRPRPWLSPRP,0.0437
11,RRIRRRPPRLPRPRPRPWMCPRP,0.214
12,RRIRRRPPRLPRPRPRPWMDPRP,-0.196
13,RRIRRRPPRLPRPRPRPWPGPRP,0.287
14,RRIRRRPPRLPRPRPRPWPIPRP,0.0239
15,RRIRRRPPRLPRPRPRPWPSPRP,0.0392
16,RRIRRRPPRLPRPRPRPWPVPRP,0.0907
17,RRIRRRPPRLPRPRPRPWQCPRP,-0.0743
18,RRIRRRPPRLPRPRPRPWQDPRP,0.0293
19,RRIRRRPPRLPRPRPRPWQQPRP,-0.0108
20,RRIRRRPPRLPRPRPRPWQRPRP,0.188
21,RRIRRRPPRLPRPRPRPWQWPRP,0.549
22,RRIRRRPPRLPRPRPRPWRYPRP,0.322
23,RRIRRRPPRLPRPRPRPWSAPRP,0.131
24,RRIRRRPPRLPRPRPRPWSFPRP,0.0517
25,RRIRRRPPRLPRPRPRPWSHPRP,-0.121

row,Sequence,shrunken log2 fold change
1,RRIRRRPPRLPRPRPRPWSSPRP,0.0446
2,RRIRRRPPRLPRPRPRPWTDPRP,-0.131
3,RRIRRRPPRLPRPRPRPWTKPRP,0.124
4,RRIRRRPPRLPRPRPRPWTRPRP,-0.0224
5,RRIRRRPPRLPRPRPRPWVFPRP,-0.106
6,RRIRRRPPRLPRPRPRPWWQPRP,0.0834
7,RRIRRRPPRLPRPRPRPWWVPRP,0.0496
8,RRIRRRPPRLPRPRPRPWYCPRP,-0.21
9,RRIRRRPPRLPRPRPRPYDSPRP,-0.545
10,RRIRRRPPRLPRPRPRPYFGPRP,-0.163
11,RRIRRRPPRLPRPRPRPYGVPRP,0.037
12,RRIRRRPPRLPRPRPRPYIGPRP,-0.399
13,RRIRRRPPRLPRPRPRPYKGPRP,0.0251
14,RRIRRRPPRLPRPRPRPYMGPRP,0.00385
15,RRIRRRPPRLPRPRPRPYMHPRP,-0.451
16,RRIRRRPPRLPRPRPRPYMYPRP,-0.74
17,RRIRRRPPRLPRPRPRPYNGPRP,-0.0173
18,RRIRRRPPRLPRPRPRPYNVPRP,-0.181
19,RRIRRRPPRLPRPRPRPYPCPRP,0.253
20,RRIRRRPPRLPRPRPRPYPKPRP,-0.0202
21,RRIRRRPPRLPRPRPRPYPVPRP,0.0514
22,RRIRRRPPRLPRPRPRPYQRPRP,-0.0429
23,RRIRRRPPRLPRPRPRPYSAPRP,-0.137
24,RRIRRRPPRLPRPRPRPYSCPRP,-0.0958
25,RRIRRRPPRLPRPRPRPYTKPRP,-0.284

row,Sequence,shrunken log2 fold change
1,RRIRRRPPRLPRPRPRPYWLPRP,-0.578
2,RRIRRRPPRLPRPRPRPYYFPRP,-0.139
3,RRIRSRPPRLPRPRPRPAALPRP,-0.0411
4,RRIRSRPPRLPRPRPRPACIPRP,-0.31
5,RRIRSRPPRLPRPRPRPACPPRP,0.413
6,RRIRSRPPRLPRPRPRPADCPRP,0.0938
7,RRIRSRPPRLPRPRPRPADTPRP,-0.0432
8,RRIRSRPPRLPRPRPRPAFYPRP,-0.166
9,RRIRSRPPRLPRPRPRPAHHPRP,0.048
10,RRIRSRPPRLPRPRPRPAHVPRP,-0.0302
11,RRIRSRPPRLPRPRPRPAIWPRP,0.463
12,RRIRSRPPRLPRPRPRPAKFPRP,-0.134
13,RRIRSRPPRLPRPRPRPALDPRP,0.137
14,RRIRSRPPRLPRPRPRPAMAPRP,1.64
15,RRIRSRPPRLPRPRPRPAPFPRP,0.201
16,RRIRSRPPRLPRPRPRPAPIPRP,0.133
17,RRIRSRPPRLPRPRPRPAPQPRP,0.461
18,RRIRSRPPRLPRPRPRPAQLPRP,-0.142
19,RRIRSRPPRLPRPRPRPASPPRP,-0.0809
20,RRIRSRPPRLPRPRPRPATCPRP,-0.154
21,RRIRSRPPRLPRPRPRPATIPRP,0.115
22,RRIRSRPPRLPRPRPRPATSPRP,0.0483
23,RRIRSRPPRLPRPRPRPATYPRP,-0.429
24,RRIRSRPPRLPRPRPRPAVMPRP,0.139
25,RRIRSRPPRLPRPRPRPAYDPRP,-0.477

row,Sequence,shrunken log2 fold change
1,RRIRSRPPRLPRPRPRPCEIPRP,-0.0377
2,RRIRSRPPRLPRPRPRPCEQPRP,0.000312
3,RRIRSRPPRLPRPRPRPCFDPRP,0.11
4,RRIRSRPPRLPRPRPRPCFGPRP,-0.217
5,RRIRSRPPRLPRPRPRPCFIPRP,-0.688
6,RRIRSRPPRLPRPRPRPCFYPRP,-0.39
7,RRIRSRPPRLPRPRPRPCGTPRP,0.202
8,RRIRSRPPRLPRPRPRPCHMPRP,-0.233
9,RRIRSRPPRLPRPRPRPCITPRP,-0.185
10,RRIRSRPPRLPRPRPRPCKGPRP,-0.3
11,RRIRSRPPRLPRPRPRPCKMPRP,-0.215
12,RRIRSRPPRLPRPRPRPCKSPRP,0.00889
13,RRIRSRPPRLPRPRPRPCLFPRP,-0.193
14,RRIRSRPPRLPRPRPRPCMHPRP,-0.514
15,RRIRSRPPRLPRPRPRPCNCPRP,0.0508
16,RRIRSRPPRLPRPRPRPCNQPRP,-0.391
17,RRIRSRPPRLPRPRPRPCNWPRP,-0.128
18,RRIRSRPPRLPRPRPRPCPGPRP,-0.234
19,RRIRSRPPRLPRPRPRPCPLPRP,-0.823
20,RRIRSRPPRLPRPRPRPCPNPRP,-0.209
21,RRIRSRPPRLPRPRPRPCPQPRP,0.0538
22,RRIRSRPPRLPRPRPRPCPSPRP,0.0411
23,RRIRSRPPRLPRPRPRPCRWPRP,0.0467
24,RRIRSRPPRLPRPRPRPCVIPRP,-0.172
25,RRIRSRPPRLPRPRPRPCVKPRP,-0.414
